From paper PMC8310280 come the findings set out here.

The target of this data set is Shiftless (SHFL) WT (human) (UniProt Q9NUL5). Nature of the data set: EMSA.
Chain of Shiftless (SHFL) WT (human) (Q9NUL5 whole entry): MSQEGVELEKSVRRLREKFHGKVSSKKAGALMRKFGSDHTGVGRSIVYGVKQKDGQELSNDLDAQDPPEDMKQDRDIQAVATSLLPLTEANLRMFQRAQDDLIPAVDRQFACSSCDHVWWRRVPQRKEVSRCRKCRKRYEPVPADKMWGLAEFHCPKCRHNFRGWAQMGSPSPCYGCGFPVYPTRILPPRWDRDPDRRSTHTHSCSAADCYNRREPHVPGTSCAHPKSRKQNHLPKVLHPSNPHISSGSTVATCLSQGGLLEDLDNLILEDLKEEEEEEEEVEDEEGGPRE

Consider “GACCCUAGAUGACUAGGGAGGUCAGGGUCAGGAGCCCCCCCCUGAACCCAGGAUAACCCUCAAAGUCGGGGGGCAACCCGUCAC [MuLV RT signal]”, for which the Kd stood at 500 nM. To IBVmax (wild-type pseudoknot) belongs 500 nM; to “GACCCUAGAUGACUAGGGAGGUCAGGGACACGAGCCCCCCCCUGAACCCAGGAUAACCCUCAAAGUCGGGGGGCAACCCGUCAC [MuLV S1]”, 500 nM; to control RNA (SARS-CoV-2 antigenome), 500 nM.

In general, Kd refers to a measure of binding affinity in units of concentration.
